Assay [1] concerns the target hMC4-R (human) (UniProt P32245). Nature of the assay: competition with 125I-NDP-MSH, HEK 293 hMC4-R membranes, 1 µM peptide.
The target of assay [2] is hMC5-R (human) (UniProt P33032). Nature of the assay: competition with 125I-NDP-MSH, HEK 293 hMC5-R membranes, 1 µM peptide.
The target in assay [3] is hMC3-R (human) (UniProt P41968). Nature of the assay: competition with 125I-NDP-MSH, HEK 293 hMC3-R membranes, 1 µM peptide.
Chain of hMC3-R (human) (P41968 whole entry): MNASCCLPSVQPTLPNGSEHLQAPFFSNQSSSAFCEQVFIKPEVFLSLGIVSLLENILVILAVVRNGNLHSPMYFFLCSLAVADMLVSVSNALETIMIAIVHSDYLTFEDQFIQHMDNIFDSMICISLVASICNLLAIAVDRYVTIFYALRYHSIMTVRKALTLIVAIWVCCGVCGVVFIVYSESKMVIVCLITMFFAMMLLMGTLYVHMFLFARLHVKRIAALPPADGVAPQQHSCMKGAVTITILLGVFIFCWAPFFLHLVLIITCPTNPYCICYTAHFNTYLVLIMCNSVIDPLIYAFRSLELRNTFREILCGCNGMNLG

Chain of hMC4-R (human) (P32245 whole entry): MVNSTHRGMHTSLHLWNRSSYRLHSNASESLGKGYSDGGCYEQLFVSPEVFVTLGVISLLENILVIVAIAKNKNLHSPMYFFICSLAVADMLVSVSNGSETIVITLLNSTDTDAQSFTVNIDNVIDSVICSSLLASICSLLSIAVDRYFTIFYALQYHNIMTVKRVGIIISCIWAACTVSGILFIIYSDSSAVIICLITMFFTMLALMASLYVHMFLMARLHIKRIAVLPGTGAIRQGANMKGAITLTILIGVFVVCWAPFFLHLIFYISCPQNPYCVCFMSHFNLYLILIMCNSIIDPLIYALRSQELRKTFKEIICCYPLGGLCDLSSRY
Chain of hMC5-R (human) (P33032 whole entry): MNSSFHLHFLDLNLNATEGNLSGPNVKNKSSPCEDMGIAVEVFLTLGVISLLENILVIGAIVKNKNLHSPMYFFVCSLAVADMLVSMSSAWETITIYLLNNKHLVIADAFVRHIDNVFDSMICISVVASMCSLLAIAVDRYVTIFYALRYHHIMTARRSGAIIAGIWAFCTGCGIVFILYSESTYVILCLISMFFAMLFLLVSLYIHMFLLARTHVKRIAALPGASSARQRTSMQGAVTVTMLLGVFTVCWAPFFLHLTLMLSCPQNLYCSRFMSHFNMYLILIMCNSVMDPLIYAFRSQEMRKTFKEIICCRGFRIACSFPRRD

Consider “Ac-Nle-cyclo(-Asp-D-His-D-Phe-Arg-Trp-Lys)-OH (peptide)”, for which the Percent Inhibition At 1 µM concentration was found to be 9% in assay [1] and 8% in assay [2].

“Ac-Nle-cyclo(-Asp-His-Phe-Arg-Trp-Lys)-OH (SEQ ID NO:2) (peptide)”: the Percent Inhibition At 1 µM concentration in assay [1] was 4%; in assay [2], 7%.

Take “Ac-Nle-cyclo(-Asp-His-D-Phe-Orn-Trp-Lys)-OH (peptide)”: in assay [3], the Percent Inhibition At 1 µM concentration worked out at 6%.

With “Ac-Nle-cyclo(-Asp-His-D-Phe-D-Arg-Trp-Lys)-OH (peptide)”, in assay [1], the Percent Inhibition At 1 µM concentration is 4%.

Values taken from US7176279.
